15 molecules from patent publication US20160108123A1 (Novartis, published 2016) can be followed below.

Where a chain is given by its changes, count along the chain named. Numbers in names are those of the source.

Experiment [1] has as its target T1, human PD-L1 expressed on 300.19 cells (human, UniProt Q9NZQ7 19-290).
T1 construct: whole, on cells; also called huPD-L1; PD-L1-expressing 300.19 cells
Briefly: competition FACS against Alexa 488-labeled murine BAP058 on PD-L1-expressing 300.19 cells. Here is the method:
Incubations with the mAb mixtures having different concentration ratios of test mAb to labeled mAb was at 4° C. for 30 min. Bound labeled murine mAb was then quantified using a FACS machine. The experiment was performed twice.

Experiment [2] concerns the target T1, human PD-L1 expressed on 300.19 cells. In words: blocking of PE-labelled PD-1-Ig (0.7 µg/mL) binding to PD-L1-expressing 300.19 cells, FACS, 4 C, 4 h. Here is the method:
Bound fluorescence was then measured using FACS and IC₅₀ values determined using Prism software.

Experiment [3] shares this target. In words: semi-quantitative ranking in the binding studies (4th column, p-1058; FACS data, p-1056); high number = poorer binder; the column's head says only 'Rank'.

T1 sequence (Q9NZQ7 19-290): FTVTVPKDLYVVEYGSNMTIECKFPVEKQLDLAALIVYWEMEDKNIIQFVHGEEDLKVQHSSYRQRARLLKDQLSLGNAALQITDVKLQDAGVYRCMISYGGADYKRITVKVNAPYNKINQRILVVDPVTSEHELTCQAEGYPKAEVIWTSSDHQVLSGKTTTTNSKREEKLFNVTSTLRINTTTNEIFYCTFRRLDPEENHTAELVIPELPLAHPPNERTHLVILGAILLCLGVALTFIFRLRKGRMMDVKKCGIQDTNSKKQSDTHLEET

B1: BAP058-hum03 (antibody, human IgG4 S228P, kappa, V domains shown)
VH: EVQLVQSGAEVKKPGATVKISCKVSGYTFTSYWMYWVRQATGQGLEWMGRIDPNSGSTKYNEKFKNRVTITADKSTSTAYMELSSLRSEDTAVYYCARDYRKGLYAMDYWGQGTTVTVSS
VL: EIVLTQSPDFQSVTPKEKVTITCKASQDVGTAVAWYLQKPGQSPQLLIYWASTRHTGVPDRFSGSGSGTDFTLKISRVEAEDVGVYYCQQYNSYPLTFGQGTKVEIKR
notes: Humanized IgG4(S228P)/human kappa mAb expressed in CHO cells
Regarding B1, the “Comp. binding (ratio conc. test mAb / conc. labelled murine BAP058 at the IC50)” value in experiment [1] was determined as 1.87. In addition, the “IC50 (read off the curve)” value in experiment [2] was approximately 0.04 µg/mL. The molecule also yielded a Rank in experiment [3] of 1.

B2: BAP058-hum05 (antibody, human IgG4 S228P, kappa, V domains shown)
VH: EVQLVQSGAEVKKPGATVKISCKVSGYTFTSYWMYWIRQSPSRGLEWLGRIDPNSGSTKYNEKFKNRLTISKDTSKNQVVLTMTNMDPVDTATYYCARDYRKGLYAMDYWGQGTTVTVSS
VL: B1 VL with D60S, L73F, K74T, R77S, V78L, E79Q, A80P, V83I, G84A, V85T
notes: as for B1
In the case of B2, the “Comp. binding (ratio conc. test mAb / conc. labelled murine BAP058 at the IC50)” value in experiment [1] turned out to be 1.71. The molecule also showed a Rank in experiment [3] of 2.

B3: BAP058-hum06 (antibody, human IgG4 S228P, kappa, V domains shown)
VH: B1 VH with A16E, T17S, V18L, K19R, V24G, V37I, A40P, T41P, Q43K, M48I
VL: B1 VL with D60S, L73F, K74T, R77S, V78L, E79Q, A80P, V83I, G84A, V85T
notes: as for B1
On to B3, for which the “Comp. binding (ratio conc. test mAb / conc. labelled murine BAP058 at the IC50)” value in experiment [1] was determined as 1.39. Moreover, the Rank in experiment [3] was determined as 2.

B4: BAP058-hum15 (antibody, human IgG4 S228P, kappa, V domains shown)
VH: B1 VH with A16E, T17S, V18L, K19R, V24G, V37I, A40P, T41P, Q43K, M48I
VL: EIVLTQSPDFQSVTPKEKVTITCKASQDVGTAVAWYQQKPGQAPRLLIYWASTRHTGVPSRFSGSGSGTEFTLTISSLQPDDFATYYCQQYNSYPLTFGQGTKVEIKR
notes: as for B1
For B4, in experiment [1], the “Comp. binding (ratio conc. test mAb / conc. labelled murine BAP058 at the IC50)” value was found to be 4.64. Moreover, in experiment [3], the Rank came out at 17.

B5: BAP058-hum10 (antibody, human IgG4 S228P, kappa, V domains shown)
VH: QITLKESGPTLVKPTQTLTLTCTFSGYTFTSYWMYWVRQAPGKGLEWVSRIDPNSGSTKYNEKFKNRVTITADKSTSTAYMELSSLRSEDTAVYYCARDYRKGLYAMDYWGQGTTVTVSS
VL: DVVMTQSPLSLPVTLGQPASISCKASQDVGTAVAWYQQKPGQAPRLLIYWASTRHTGVPSRFSGSGSGTEFTLTISSLQPDDFATYYCQQYNSYPLTFGQGTKVEIKR
notes: as for B1
With B5, the Rank in experiment [3] was 4.

B6: chimeric mAb BAP058-chi (antibody, V domains shown)
VH: EVQLQQSGAELVKPGASVKLSCKASGYTFTSYWMYWVKQGPGRGLEWIGRIDPNSGSTKYNEKFKNKATLTVDKSSSTAYMQLSSLTSEDSAVYYCARDYRKGLYAMDYWGQGTTVTVSS
VL: DIMMTQSHKFMSTSVGDRVSITCKASQDVGTAVAWYQQKPGQSPKLLIYWASTRHTGVPDRFTGSGSGTDFTLTISNVQSEDLADYFCQQYNSYPLTFGQGTKVEIK
notes: also called chimeric antibody; the chimera
As to B6, the “IC50 (read off the curve)” value in experiment [2] is approximately 0.04 µg/mL.

B7: BAP058-hum12 (antibody, human IgG4 S228P, kappa, V domains shown)
VH: EVQLVQSGAEVKKPGESLRISCKGSGYTFTSYWMYWVRQAPGQGLEWMGRIDPNSGSTKYNEKFKNRVTISVDTSKNQFSLKLSSVTAADTAVYYCARDYRKGLYAMDYWGQGTTVTVSS
VL: DIQMTQSPSSLSASVGDRVTITCKASQDVGTAVAWYQQKPGQAPRLLIYWASTRHTGVPSRFSGSGSGTDFTFTISSLQPEDIATYYCQQYNSYPLTFGQGTKVEIKR
notes: as for B1
With B7, in experiment [1], the “Comp. binding (ratio conc. test mAb / conc. labelled murine BAP058 at the IC50)” value amounted to 2.27. This molecule also displayed a Rank in experiment [3] of 4.

B8: BAP058-hum17 (antibody, human IgG4 S228P, kappa)
heavy: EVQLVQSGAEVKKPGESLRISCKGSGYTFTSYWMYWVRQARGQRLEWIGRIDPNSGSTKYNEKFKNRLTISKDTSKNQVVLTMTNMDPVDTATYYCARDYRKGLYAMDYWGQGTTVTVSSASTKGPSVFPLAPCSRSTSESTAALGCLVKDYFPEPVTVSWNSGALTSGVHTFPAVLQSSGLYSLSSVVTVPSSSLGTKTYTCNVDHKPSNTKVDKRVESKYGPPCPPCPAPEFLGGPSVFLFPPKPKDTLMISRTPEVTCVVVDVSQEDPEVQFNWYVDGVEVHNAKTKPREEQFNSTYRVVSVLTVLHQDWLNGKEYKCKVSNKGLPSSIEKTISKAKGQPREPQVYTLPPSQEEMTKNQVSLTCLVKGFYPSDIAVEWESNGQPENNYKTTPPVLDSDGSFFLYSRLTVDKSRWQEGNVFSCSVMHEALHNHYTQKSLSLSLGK
light: EIVLTQSPDFQSVTPKEKVTITCKASQDVGTAVAWYQQKPGQAPRLLIYWASTRHTGVPSRFSGSGSGTEFTLTISSLQPDDFATYYCQQYNSYPLTFGQGTKVEIKRTVAAPSVFIFPPSDEQLKSGTASVVCLLNNFYPREAKVQWKVDNALQSGNSQESVTEQDSKDSTYSLSSTLTLSKADYEKHKVYACEVTHQGLSSPVTKSFNRGEC
notes: as for B1
As to B8, the “Comp. binding (ratio conc. test mAb / conc. labelled murine BAP058 at the IC50)” value in experiment [1] is 2.16. The molecule further returned a Rank in experiment [3] of 4.

B9: BAP058-hum08 (antibody, human IgG4 S228P, kappa)
heavy: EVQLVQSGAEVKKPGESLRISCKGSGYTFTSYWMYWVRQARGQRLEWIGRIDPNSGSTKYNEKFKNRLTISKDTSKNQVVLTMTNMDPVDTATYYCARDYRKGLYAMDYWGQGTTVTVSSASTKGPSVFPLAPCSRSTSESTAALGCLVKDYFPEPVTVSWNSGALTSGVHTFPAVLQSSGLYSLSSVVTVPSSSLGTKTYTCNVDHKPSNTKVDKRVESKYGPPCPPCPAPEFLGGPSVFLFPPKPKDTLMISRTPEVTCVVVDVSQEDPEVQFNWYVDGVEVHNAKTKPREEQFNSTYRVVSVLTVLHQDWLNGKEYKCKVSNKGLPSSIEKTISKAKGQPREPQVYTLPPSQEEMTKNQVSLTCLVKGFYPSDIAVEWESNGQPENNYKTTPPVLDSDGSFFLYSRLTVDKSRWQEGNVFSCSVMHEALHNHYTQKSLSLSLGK
light: DVVMTQSPLSLPVTLGQPASISCKASQDVGTAVAWYQQKPGQAPRLLIYWASTRHTGVPSRFSGSGSGTEFTLTISSLQPDDFATYYCQQYNSYPLTFGQGTKVEIKRTVAAPSVFIFPPSDEQLKSGTASVVCLLNNFYPREAKVQWKVDNALQSGNSQESVTEQDSKDSTYSLSSTLTLSKADYEKHKVYACEVTHQGLSSPVTKSFNRGEC
notes: as for B1
With B9, the “Comp. binding (ratio conc. test mAb / conc. labelled murine BAP058 at the IC50)” value in experiment [1] came out at 3.38. This molecule also registered a Rank in experiment [3] of 17.

B10: BAP058-hum01 (antibody, human IgG4 S228P, kappa, V domains shown)
VH: QVQLVQSGAEVKKPGASVKVSCKASGYTFTSYWMYWVRQATGQGLEWMGRIDPNSGSTKYNEKFKNRFTISRDDSKNTAYLQMNSLKTEDTAVYYCARDYRKGLYAMDYWGQGTTVTVSS
VL: DIVMTQTPLSLPVTPGEPASISCKASQDVGTAVAWYLQKPGQSPQLLIYWASTRHTGIPARFSGSGSGTEFTLTISSLQSEDFAVYYCQQYNSYPLTFGQGTKVEIKR
notes: as for B1
For the molecule B10, in experiment [1], the “Comp. binding (ratio conc. test mAb / conc. labelled murine BAP058 at the IC50)” value stood at 2.56. In experiment [3], this molecule registered a Rank of 17.

B11: BAP058-hum07 (antibody, human IgG4 S228P, kappa, V domains shown)
VH: B10 VH with V37I, A40S, T41P, G42S, Q43R, M48L
VL: EIVLTQSPATLSLSPGERATLSCKASQDVGTAVAWYLQKPGQSPQLLIYWASTRHTGIPPRFSGSGYGTDFTLTINNIESEDAAYYFCQQYNSYPLTFGQGTKVEIKR
notes: as for B1
Regarding B11, the “Comp. binding (ratio conc. test mAb / conc. labelled murine BAP058 at the IC50)” value in experiment [1] stood at 1.8. Further, in experiment [2], the “IC50 (read off the curve)” value is approximately 0.04 µg/mL. This molecule came in with a Rank in experiment [3] of 2.

B12: BAP058-hum14 (antibody, human IgG4 S228P, kappa, V domains shown)
VH: B10 VH
VL: B4 VL
notes: as for B1
For B12, the “Comp. binding (ratio conc. test mAb / conc. labelled murine BAP058 at the IC50)” value in experiment [1] was 4.59. Further, the Rank in experiment [3] amounted to 4.

B13: BAP058-hum02 (antibody, human IgG4 S228P, kappa, V domains shown)
VH: B10 VH
VL: B7 VL with Q37L, A43S, R45Q, F73L, I83F
notes: as for B1
On to B13, for which the “Comp. binding (ratio conc. test mAb / conc. labelled murine BAP058 at the IC50)” value in experiment [1] stood at 2.14. In experiment [3], this molecule came in with a Rank of 17.

B14: BAP058-hum09 (antibody, human IgG4 S228P, kappa, V domains shown)
VH: B1 VH with A16E, T17S, V18L, K19R, V24G, V37I, A40P, T41P, Q43K, M48I
VL: B10 VL
notes: as for B1
Consider B14, for which the “Comp. binding (ratio conc. test mAb / conc. labelled murine BAP058 at the IC50)” value in experiment [1] came to 1.96. In experiment [3], this molecule had a Rank of 3.

B15: BAP058-hum16 (antibody, human IgG4 S228P, kappa, V domains shown)
VH: B10 VH with V37I, A40S, T41P, G42S, Q43R, M48L
VL: B4 VL
notes: as for B1
In the case of B15, in experiment [1], the “Comp. binding (ratio conc. test mAb / conc. labelled murine BAP058 at the IC50)” value was 2.47. In experiment [3], this molecule returned a Rank of 4.
